Changes are numbered by the printed parent chain.
Tests used:
[1] = biological target: T1, MnmE (Y169A, D175A and F176A) (Escherichia coli, UniProt P25522 1-454, Y169A | D175A | F176A); experiment: ITC; MnmE mutant in syringe, MnmG in cell
T1 sequence: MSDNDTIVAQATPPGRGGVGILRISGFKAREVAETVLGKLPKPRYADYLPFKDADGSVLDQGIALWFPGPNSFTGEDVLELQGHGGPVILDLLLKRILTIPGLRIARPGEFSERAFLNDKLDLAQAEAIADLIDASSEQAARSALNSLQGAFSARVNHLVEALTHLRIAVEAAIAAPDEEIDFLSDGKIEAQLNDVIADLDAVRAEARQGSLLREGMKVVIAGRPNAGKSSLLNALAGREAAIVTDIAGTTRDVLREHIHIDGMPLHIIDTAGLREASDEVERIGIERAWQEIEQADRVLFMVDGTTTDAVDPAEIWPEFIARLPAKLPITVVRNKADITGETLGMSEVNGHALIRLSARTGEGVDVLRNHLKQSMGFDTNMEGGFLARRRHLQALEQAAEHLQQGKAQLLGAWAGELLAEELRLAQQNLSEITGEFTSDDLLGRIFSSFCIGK

[2] = biological target: T2, MnmE (Y169A, D175A and F176A) with additional S153A (Escherichia coli, UniProt P25522 1-454, S153A | Y169A | D175A | F176A); experiment: ITC; MnmE mutant in syringe, MnmG in cell
T2 sequence: T1 sequence with S153A

MnmE (T434A and D440A) [3] = biological target: T3, MnmE (T434A and D440A) (Escherichia coli, UniProt P25522 1-454, T434A | D440A); experiment: ITC; MnmE mutant in syringe, MnmG in cell
T3 sequence: T1 sequence with A169Y, A175D, A176F, T434A, D440A

[4] = biological target: T1, MnmE (Y169A, D175A and F176A); experiment: ITC; MnmG in syringe, MnmE mutant in cell
[5] = biological target: T2, MnmE (Y169A, D175A and F176A) with …; experiment: ITC; MnmG in syringe, MnmE mutant in cell
MnmE (T434A and D440A) [6] = biological target: T3, MnmE (T434A and D440A); experiment: ITC; MnmG in syringe, MnmE mutant in cell
[7] = biological target: the molecule itself; experiment: SEC-MALS; E. coli MnmG alone, at all concentrations used (Supplementary Figure S2(D))
[8] = biological target: T4, MnmE from Escherichia coli, wild type (Escherichia coli, UniProt P25522 1-454); experiment: ITC; 278 K; 20 mM Hepes pH 7.5, 150 mM NaCl, 5 mM MgCl2, 2 mM BME, 1 mM FAD; 15 uM in the cell, 300 uM in the syringe; titrated in both directions; one site model; apparent; conditions: both partners purified
T4 construct: tRNA modification GTPase MnmE (formerly TrmE), Escherichia coli; open reading frame cloned in a pET20 vector; Homodimer of about 50-kDa subunits; Used nucleotide-free, with GDP-AlFx or with GppNHp depending on the experiment; also called TrmE; MnmE wt
T4 sequence (looked up): T1 sequence with A169Y, A175D, A176F

Kd [1]: 12 µM
Kd [2]: 12.9 µM
Kd (MnmE (T434A and D440A) [3]): 11.2 µM
Kd [4]: 11.4 µM
Kd [5]: 29.9 µM
Kd (MnmE (T434A and D440A) [6]): 9.4 µM
stoichiometry N [8]: 1
B1: MnmG from Escherichia coli, wild type (enzyme, UniProt P0A6U3 1-629, looked up)
chain: MFYPDPFDVIIIGGGHAGTEAAMAAARMGQQTLLLTHNIDTLGQMSCNPAIGGIGKGHLVKEVDALGGLMAKAIDQAGIQFRILNASKGPAVRATRAQADRVLYRQAVRTALENQPNLMIFQQAVEDLIVENDRVVGAVTQMGLKFRAKAVVLTVGTFLDGKIHIGLDNYSGGRAGDPPSIPLSRRLRELPLRVGRLKTGTPPRIDARTIDFSVLAQQHGDNPMPVFSFMGNASQHPQQVPCYITHTNEKTHDVIRSNLDRSPMYAGVIEGVGPRYCPSIEDKVMRFADRNQHQIFLEPEGLTSNEIYPNGISTSLPFDVQMQIVRSMQGMENAKIVRPGYAIEYDFFDPRDLKPTLESKFIQGLFFAGQINGTTGYEEAAAQGLLAGLNAARLSADKEGWAPARSQAYLGVLVDDLCTLGTKEPYRMFTSRAEYRLMLREDNADLRLTEIGRELGLVDDERWARFNEKLENIERERQRLKSTWVTPSAEAAAEVNAHLTAPLSREASGEDLLRRPEMTYEKLTTLTPFAPALTDEQAAEQVEIQVKYEGYIARQQDEIEKQLRNENTLLPATLDYRQVSGLSNEVIAKLNDHKPASIGQASRISGVTPAAISILLVWLKKQGMLRRSA
notes: tRNA uridine 5-carboxymethylaminomethyl modification enzyme MnmG (formerly GidA), Escherichia coli; open reading frame cloned in a pET14b vector; Homodimer of 70-kDa subunits; also called GidA; MnmG wt
stoichiometry N [7]: 2
